In patent US20150291693A1 (FRAUNHOFER GESELLSCHAFT ZUR FORDERUNG DER ANGEWANDTEN …, published 2015):

Key:
CD30 = target: T1, CD30 (human, UniProt P28908 19-595); assay: cell-based or functional assay
T1 sequence (looked up): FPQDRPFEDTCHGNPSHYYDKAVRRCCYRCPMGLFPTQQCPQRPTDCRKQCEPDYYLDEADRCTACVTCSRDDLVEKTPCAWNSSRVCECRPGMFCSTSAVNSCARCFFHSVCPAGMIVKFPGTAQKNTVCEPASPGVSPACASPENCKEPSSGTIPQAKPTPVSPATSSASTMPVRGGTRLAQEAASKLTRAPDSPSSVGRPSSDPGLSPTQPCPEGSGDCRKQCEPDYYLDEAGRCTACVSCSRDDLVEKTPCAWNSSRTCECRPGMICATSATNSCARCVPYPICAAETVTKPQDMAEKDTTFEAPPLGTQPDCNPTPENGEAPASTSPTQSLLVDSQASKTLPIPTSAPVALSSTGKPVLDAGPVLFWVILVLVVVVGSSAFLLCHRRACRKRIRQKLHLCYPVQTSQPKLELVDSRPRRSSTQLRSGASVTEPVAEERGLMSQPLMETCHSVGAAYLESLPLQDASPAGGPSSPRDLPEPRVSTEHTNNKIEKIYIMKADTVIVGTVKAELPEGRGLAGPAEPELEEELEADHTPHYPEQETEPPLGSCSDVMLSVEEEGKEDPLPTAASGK

[1] = target: CD64 (Fc gamma receptor I) (human, UniProt P12314 16-374); assay: cell-based or functional assay
Chain of CD64 (Fc gamma receptor I) (P12314 16-374, form in doubt): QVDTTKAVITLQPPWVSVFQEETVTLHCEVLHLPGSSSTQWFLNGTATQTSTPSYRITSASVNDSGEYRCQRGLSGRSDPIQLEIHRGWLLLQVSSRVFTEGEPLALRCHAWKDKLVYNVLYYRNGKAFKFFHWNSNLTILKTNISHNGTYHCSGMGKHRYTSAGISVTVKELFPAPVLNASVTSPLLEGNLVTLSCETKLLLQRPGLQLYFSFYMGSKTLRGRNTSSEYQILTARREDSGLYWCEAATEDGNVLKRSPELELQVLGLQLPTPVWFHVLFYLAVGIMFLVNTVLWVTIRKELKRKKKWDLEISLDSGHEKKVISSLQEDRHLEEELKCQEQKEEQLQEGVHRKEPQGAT

B1: Gm-Ki4(scFv) (other)
chain: IIGGREVIPHSRPYMASLQRNGSHLCGGVLVHPKWVLTAAHCLAQRMAQLRLVLGLHTLDSPGLTFHIKAAIQHPRYKPVPALENDLALLQLDGKVKPSRTIRPLALPSKRQVVAAGTRCSMAGWGLTHQGGRLSRVLRELDLQVLDTRMCNNSRFWNGSLSPSMVCLAADSKDQAPCKGDSGGPLVCGKGRVLAGVLSFSSRVCTDIFKPPVATAVAPYVSWIRKVTGRSAAEHEGDAAQPAMAQVKLQESGTELAKPGAAVKMSCKASGYTFTDYWMHWVKQRPGQGLEWIGYINPNTAYTDYNQKFKDKATLTADKSSSTAYMQLRSLTSEDSAVYYCAKKTTQTTWGFPFWGQGTTVTVSSGGGGSGGGGSGGGGSDIVLTQSPKSMAMSVGERVTLSCKASENVDSFVSWYQQKPGQSPKLLIYGASNRYTGVPDRFAGSGSGRDFTLTISSVQAEDLADYHCGQNYRYPLTFGAGTKLEIKR
- IC50, XTT viability assay on L540 cells (CD30): 0.272 µM

B2: Gm-H22(scFv) (other)
chain: IIGGREVIPHSRPYMASLQRNGSHLCGGVLVHPKWVLTAAHCLAQRMAQLRLVLGLHTLDSPGLTFHIKAAIQHPRYKPVPALENDLALLQLDGKVKPSRTIRPLALPSKRQVVAAGTRCSMAGWGLTHQGGRLSRVLRELDLQVLDTRMCNNSRFWNGSLSPSMVCLAADSKDQAPCKGDSGGPLVCGKGRVLAGVLSFSSRVCTDIFKPPVATAVAPYVSWIRKVTGRSAAEHEGDAAQPAMAQVQLVESGGGVVQPGRSLRLSCSSSGFIFSDNYMYWVRQAPGKGLEWVATISDGGSYTYYPDSVKGRFTISRDNSKNTLFLQMDSLRPEDTGVYFCARGYYRYEGAMDYWGQGTPVTVSSGGGGSGGGGSGGGGSDIQLTQSPSSLSASVGDRVTITCKSSQSVLYSSNQKNYLAWYQQKPGKAPKLLIYWASTRESGVPSRFSGSGSGTDFTFTISSLQPEDIATYYCHQYLSSWTFGQGTKLEIK
- IC50, XTT viability assay on Interferon γ stimulated HL60 cells [1]: 0.0012 µM
